Experimental data published in publication PMC1764428, “Secretion and properties of a hybrid Kluyveromyces lactis-Aspergillus niger β-galactosidase” (Microbial Cell Factories, 2006).

Substrate: O=[N+]([O-])c1ccccc1O[C@@H]1O[C@H](CO)[C@H](O)[C@H](O)[C@H]1O
Assay: o-nitrophenol release, Lineweaver-Burk
Assay type: biochemical, Kluyveromyces lactis
Conditions: crude extract (30 μg protein); buffer Z with 1.6 mM MgSO4; ONPG 2-12 mM

B1: native K. lactis β-galactosidase (pSPGK1-LAC4) (Kluyveromyces lactis NRRL Y-1140) (protein)
chain: MSCLIPENLRNPKKVHENRLPTRAYYYDQDIFESLNGPWAFALFDAPLDAPDAKNLDWETAKKWSTISVPSHWELQEDWKYGKPIYTNVQYPIPIDIPNPPTVNPTGVYARTFELDSKSIESFEHRLRFEGVDNCYELYVNGQYVGFNKGSRNGAEFDIQKYVSEGENLVVVKVFKWSDSTYIEDQDQWWLSGIYRDVSLLKLPKKAHIEDVRVTTTFVDSQYQDAELSVKVDVQGSSYDHINFTLYEPEDGSKVYDASSLLNEENGNTTFSTKEFISFSTKKNEETAFKINVKAPEHWTAENPTLYKYQLDLIGSDGSVIQSIKHHVGFRQVELKDGNITVNGKDILFRGVNRHDHHPRFGRAVPLDFVVRDLILMKKFNINAVRNSHYPNHPKVYDLFDKLGFWVIDEADLETHGVQEPFNRHTNLEAEYPDTKNKLYDVNAHYLSDNPEYEVAYLDRASQLVLRDVNHPSIIIWSLGNEACYGRNHKAMYKLIKQLDPTRLVHYEGDLNALSADIFSFMYPTFEIMERWRKNHTDENGKFEKPLILCEYGHAMGNGPGSLKEYQELFYKEKFYQGGFIWEWANHGIEFEDVSTADGKLHKAYAYGGDFKEEVHDGVFIMDGLCNSEHNPTPGLVEYKKVIEPVHIKIAHGSVTITNKHDFITTDHLLFIDKDTGKTIDVPSLKPEESVTIPSDTTYVVAVLKDDAGVLKAGHEIAWGQAELPLKVPDFVTETAEKAAKINDGKRYVSVESSGLHFILDKLLGKIESLKVKGKEISSKFEGSSITFWRPPTNNDEPRDFKNWKKYNIDLMKQNIHGVSVEKGSNGSLAVVTVNSRISPVVFYYGFETVQKYTIFANKINLNTSMKLTGEYQPPDFPRVGYEFWLGDSYESFEWLGRGPGESYPDKKESQRFGLYDSKDVEEFVYDYPQENGNHTDTHFLNIKFEGAGKLSIFQKEKPFNFKISDEYGVDEAAHACDVKRYGRHYLRLDHAIHGVGSEACGPAVLDQYRLKAQDFNFEFDLAFE
notes: expressed in K. lactis MW190-9B (lac4-8); crude cell-free extract
Km: 1500 µM
